Molecular target: T1, biotinylated TNF alpha (human (definition in paragraph 32)); the …, UniProt P01375 77-233, biotinylated (site not stated))
T1 construct: Used for FACS sorting of yeast libraries and immobilised on streptavidin sensors for BLI; also called TNFα; Tumor Necrosis Factor Alpha
Test: yeast display MACS and FACS sorting on biotinylated TNF alpha, NGS enrichment, CDRH3 library
Description: The second selection phase consists of selecting the mutant by the dissociation speed thereof.
The selection of DMS libraries was done in a single step by FACS on an ARIA III device (Becton Dickinson, Franklin Lakes, United States). […] After washing the cells with PBS 0.1% BSA, they were marked by using an APC coupled antibody directed against the OK domain (Thermo Fisher Scientific, Waltham, United States; dilution 1:100) and a PE coupled streptavidin (Thermo Fisher Scientific, Waltham, United States; dilution 1:100). The selection of libraries was done by means of rectangular sorting window containing 5% of the clones of interest according to the optimal parameters described by Kowalski et al. PLoS One 10, 1-23 (2015)). The selection of de-immunization libraries was done in several steps. […] The libraries underwent different steps of sorting by FACS.

T1 sequence (P01375 77-233 limits assumed): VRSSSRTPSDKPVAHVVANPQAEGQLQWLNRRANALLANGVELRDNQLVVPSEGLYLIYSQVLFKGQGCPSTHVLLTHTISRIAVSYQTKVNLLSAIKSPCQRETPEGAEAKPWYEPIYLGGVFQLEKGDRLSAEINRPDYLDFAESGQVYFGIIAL

| Binder | Enrichment |
| --- | --- |
| CDRH3 library mutant LYYCAKTKYLPS (Fab, V domains shown) VH: EVQLVESGGGLVQPGRSLRLSCAASGFTFDDYAMHWVRQAPGKGLEWVSAITWNSGHIDYADSVEGRFTISRDNAKNSLYLQMNSLRAEDTALYYCAKTKYLPSASSLDYWGQGTLVTVSS VL: not shown | 65400 |
| CDRH3 library mutant LYYCAKVKYTPT (Fab, V domains shown) VH: EVQLVESGGGLVQPGRSLRLSCAASGFTFDDYAMHWVRQAPGKGLEWVSAITWNSGHIDYADSVEGRFTISRDNAKNSLYLQMNSLRAEDTALYYCAKVKYTPTASSLDYWGQGTLVTVSS VL: not shown | 110000 |
| CDRH3 library mutant VYYCAKTNYLPT (Fab, V domains shown) VH: EVQLVESGGGLVQPGRSLRLSCAASGFTFDDYAMHWVRQAPGKGLEWVSAITWNSGHIDYADSVEGRFTISRDNAKNSLYLQMNSLRAEDTAVYYCAKTNYLPTASSLDYWGQGTLVTVSS VL: not shown | 51900 |
| CDRH3 library mutant VYYCAKSKYLPT (Fab, V domains shown) VH: EVQLVESGGGLVQPGRSLRLSCAASGFTFDDYAMHWVRQAPGKGLEWVSAITWNSGHIDYADSVEGRFTISRDNAKNSLYLQMNSLRAEDTAVYYCAKSKYLPTASSLDYWGQGTLVTVSS VL: not shown | 105000 |
| CDRH3 library mutant VYYCAKTKYLPT (Fab, V domains shown) VH: EVQLVESGGGLVQPGRSLRLSCAASGFTFDDYAMHWVRQAPGKGLEWVSAITWNSGHIDYADSVEGRFTISRDNAKNSLYLQMNSLRAEDTAVYYCAKTKYLPTASSLDYWGQGTLVTVSS VL: not shown | 1.06e+06 |
| CDRH3 library mutant LYYCAKTTYLPS (Fab, V domains shown) VH: EVQLVESGGGLVQPGRSLRLSCAASGFTFDDYAMHWVRQAPGKGLEWVSAITWNSGHIDYADSVEGRFTISRDNAKNSLYLQMNSLRAEDTALYYCAKTTYLPSASSLDYWGQGTLVTVSS VL: not shown | 151000 |
| CDRH3 library mutant VYYCAKAHHLPT (Fab, V domains shown) VH: EVQLVESGGGLVQPGRSLRLSCAASGFTFDDYAMHWVRQAPGKGLEWVSAITWNSGHIDYADSVEGRFTISRDNAKNSLYLQMNSLRAEDTAVYYCAKAHHLPTASSLDYWGQGTLVTVSS VL: not shown | 122000 |
| CDRH3 library mutant VYYCAKAKYLPT (Fab, V domains shown) VH: EVQLVESGGGLVQPGRSLRLSCAASGFTFDDYAMHWVRQAPGKGLEWVSAITWNSGHIDYADSVEGRFTISRDNAKNSLYLQMNSLRAEDTAVYYCAKAKYLPTASSLDYWGQGTLVTVSS VL: not shown | 163000 |
| CDRH3 library mutant VYYCAKTHYLPT (Fab, V domains shown) VH: EVQLVESGGGLVQPGRSLRLSCAASGFTFDDYAMHWVRQAPGKGLEWVSAITWNSGHIDYADSVEGRFTISRDNAKNSLYLQMNSLRAEDTAVYYCAKTHYLPTASSLDYWGQGTLVTVSS VL: not shown | 61200 |
| CDRH3 library mutant LYYCAKTRYLPT (Fab, V domains shown) VH: EVQLVESGGGLVQPGRSLRLSCAASGFTFDDYAMHWVRQAPGKGLEWVSAITWNSGHIDYADSVEGRFTISRDNAKNSLYLQMNSLRAEDTALYYCAKTRYLPTASSLDYWGQGTLVTVSS VL: not shown | 59400 |
| CDRH3 library mutant VYYCAKTRYTPT (Fab, V domains shown) VH: EVQLVESGGGLVQPGRSLRLSCAASGFTFDDYAMHWVRQAPGKGLEWVSAITWNSGHIDYADSVEGRFTISRDNAKNSLYLQMNSLRAEDTAVYYCAKTRYTPTASSLDYWGQGTLVTVSS VL: not shown | 80800 |
| CDRH3 library mutant LYYCAKTNYLPT (Fab, V domains shown) VH: EVQLVESGGGLVQPGRSLRLSCAASGFTFDDYAMHWVRQAPGKGLEWVSAITWNSGHIDYADSVEGRFTISRDNAKNSLYLQMNSLRAEDTALYYCAKTNYLPTASSLDYWGQGTLVTVSS VL: not shown | 448000 |
| CDRH3 library mutant LYYCAKVKYLPS (Fab, V domains shown) VH: EVQLVESGGGLVQPGRSLRLSCAASGFTFDDYAMHWVRQAPGKGLEWVSAITWNSGHIDYADSVEGRFTISRDNAKNSLYLQMNSLRAEDTALYYCAKVKYLPSASSLDYWGQGTLVTVSS VL: not shown | 188000 |

Now from value to binder:

| Enrichment | Binder |
| --- | --- |
| 54100 | CDRH3 library mutant LYYCAKTTYLPT (Fab, V domains shown) VH: EVQLVESGGGLVQPGRSLRLSCAASGFTFDDYAMHWVRQAPGKGLEWVSAITWNSGHIDYADSVEGRFTISRDNAKNSLYLQMNSLRAEDTALYYCAKTTYLPTASSLDYWGQGTLVTVSS VL: not shown |
| 251000 | CDRH3 library mutant LYYCAKVKYLPT (Fab, V domains shown) VH: EVQLVESGGGLVQPGRSLRLSCAASGFTFDDYAMHWVRQAPGKGLEWVSAITWNSGHIDYADSVEGRFTISRDNAKNSLYLQMNSLRAEDTALYYCAKVKYLPTASSLDYWGQGTLVTVSS VL: not shown |
| 62000 | CDRH3 library mutant VYYCAKVAYLPS (Fab, V domains shown) VH: EVQLVESGGGLVQPGRSLRLSCAASGFTFDDYAMHWVRQAPGKGLEWVSAITWNSGHIDYADSVEGRFTISRDNAKNSLYLQMNSLRAEDTAVYYCAKVAYLPSASSLDYWGQGTLVTVSS VL: not shown |
| 707000 | CDRH3 library mutant VYYCAKTRYLPT (Fab, V domains shown) VH: EVQLVESGGGLVQPGRSLRLSCAASGFTFDDYAMHWVRQAPGKGLEWVSAITWNSGHIDYADSVEGRFTISRDNAKNSLYLQMNSLRAEDTAVYYCAKTRYLPTASSLDYWGQGTLVTVSS VL: not shown |
| 87100 | CDRH3 library mutant VYYCAKTKYLPS (Fab, V domains shown) VH: EVQLVESGGGLVQPGRSLRLSCAASGFTFDDYAMHWVRQAPGKGLEWVSAITWNSGHIDYADSVEGRFTISRDNAKNSLYLQMNSLRAEDTAVYYCAKTKYLPSASSLDYWGQGTLVTVSS VL: not shown |
| 100000 | CDRH3 library mutant VYYCAKTGYLPT (Fab, V domains shown) VH: EVQLVESGGGLVQPGRSLRLSCAASGFTFDDYAMHWVRQAPGKGLEWVSAITWNSGHIDYADSVEGRFTISRDNAKNSLYLQMNSLRAEDTAVYYCAKTGYLPTASSLDYWGQGTLVTVSS VL: not shown |
| 371000 | CDRH3 library mutant VYYCAKTSYLPS (Fab, V domains shown) VH: EVQLVESGGGLVQPGRSLRLSCAASGFTFDDYAMHWVRQAPGKGLEWVSAITWNSGHIDYADSVEGRFTISRDNAKNSLYLQMNSLRAEDTAVYYCAKTSYLPSASSLDYWGQGTLVTVSS VL: not shown |
| 149000 | CDRH3 library mutant VYYCAKTTYLPS (Fab, V domains shown) VH: EVQLVESGGGLVQPGRSLRLSCAASGFTFDDYAMHWVRQAPGKGLEWVSAITWNSGHIDYADSVEGRFTISRDNAKNSLYLQMNSLRAEDTAVYYCAKTTYLPSASSLDYWGQGTLVTVSS VL: not shown |
| 63500 | CDRH3 library mutant LYYCAKTRYLPS (Fab, V domains shown) VH: EVQLVESGGGLVQPGRSLRLSCAASGFTFDDYAMHWVRQAPGKGLEWVSAITWNSGHIDYADSVEGRFTISRDNAKNSLYLQMNSLRAEDTALYYCAKTRYLPSASSLDYWGQGTLVTVSS VL: not shown |
| 97400 | CDRH3 library mutant LYYCAKTKYLPT (Fab, V domains shown) VH: EVQLVESGGGLVQPGRSLRLSCAASGFTFDDYAMHWVRQAPGKGLEWVSAITWNSGHIDYADSVEGRFTISRDNAKNSLYLQMNSLRAEDTALYYCAKTKYLPTASSLDYWGQGTLVTVSS VL: not shown |
| 1.29e+06 | CDRH3 library mutant VYYCAKTTYLPT (Fab, V domains shown) VH: EVQLVESGGGLVQPGRSLRLSCAASGFTFDDYAMHWVRQAPGKGLEWVSAITWNSGHIDYADSVEGRFTISRDNAKNSLYLQMNSLRAEDTAVYYCAKTTYLPTASSLDYWGQGTLVTVSS VL: not shown |

Source: patent US20230142800A1 (COMMISSARIAT A L ENERGIE ATOMIQUE ET AUX ENERGIES …, published 2023)
